Measurements published in US20240174744A1 (SCIRHOM, published 2024).

T1: human iRhom2 (inactive rhomboid protein 2, isoform 1), endogenously expressed on human cells (human, UniProt Q6PJF5 1-856)
T1 sequence: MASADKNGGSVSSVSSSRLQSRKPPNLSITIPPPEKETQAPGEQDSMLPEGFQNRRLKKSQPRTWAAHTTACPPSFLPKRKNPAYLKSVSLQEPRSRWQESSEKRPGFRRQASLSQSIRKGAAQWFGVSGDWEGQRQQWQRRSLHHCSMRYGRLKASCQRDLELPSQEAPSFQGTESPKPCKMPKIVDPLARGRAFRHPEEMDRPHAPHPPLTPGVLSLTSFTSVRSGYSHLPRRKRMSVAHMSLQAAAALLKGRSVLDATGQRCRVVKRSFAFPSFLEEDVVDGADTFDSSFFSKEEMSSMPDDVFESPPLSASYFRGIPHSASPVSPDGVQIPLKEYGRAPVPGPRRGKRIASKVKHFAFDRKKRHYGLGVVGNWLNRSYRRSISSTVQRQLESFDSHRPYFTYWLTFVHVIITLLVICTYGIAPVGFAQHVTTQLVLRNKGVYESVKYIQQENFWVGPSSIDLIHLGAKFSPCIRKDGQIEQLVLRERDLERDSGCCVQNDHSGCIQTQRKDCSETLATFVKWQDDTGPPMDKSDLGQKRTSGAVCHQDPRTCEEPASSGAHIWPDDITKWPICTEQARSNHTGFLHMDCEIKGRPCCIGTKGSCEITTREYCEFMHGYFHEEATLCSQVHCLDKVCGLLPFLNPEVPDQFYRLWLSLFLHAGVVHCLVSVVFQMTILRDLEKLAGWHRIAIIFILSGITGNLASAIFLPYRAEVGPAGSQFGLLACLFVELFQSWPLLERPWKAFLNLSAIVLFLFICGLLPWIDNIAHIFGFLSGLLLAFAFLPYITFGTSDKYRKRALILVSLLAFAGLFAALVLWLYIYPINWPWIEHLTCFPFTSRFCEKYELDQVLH

T2: dog iRhom2 full length wild type, C-terminally tagged with 3 consecutive copies of the T7 epitope (dog, UniProt Q00M95 1-827)
T2 construct: whole, on cells; also called Dog-iR2-FL-WT-T7
T2 sequence: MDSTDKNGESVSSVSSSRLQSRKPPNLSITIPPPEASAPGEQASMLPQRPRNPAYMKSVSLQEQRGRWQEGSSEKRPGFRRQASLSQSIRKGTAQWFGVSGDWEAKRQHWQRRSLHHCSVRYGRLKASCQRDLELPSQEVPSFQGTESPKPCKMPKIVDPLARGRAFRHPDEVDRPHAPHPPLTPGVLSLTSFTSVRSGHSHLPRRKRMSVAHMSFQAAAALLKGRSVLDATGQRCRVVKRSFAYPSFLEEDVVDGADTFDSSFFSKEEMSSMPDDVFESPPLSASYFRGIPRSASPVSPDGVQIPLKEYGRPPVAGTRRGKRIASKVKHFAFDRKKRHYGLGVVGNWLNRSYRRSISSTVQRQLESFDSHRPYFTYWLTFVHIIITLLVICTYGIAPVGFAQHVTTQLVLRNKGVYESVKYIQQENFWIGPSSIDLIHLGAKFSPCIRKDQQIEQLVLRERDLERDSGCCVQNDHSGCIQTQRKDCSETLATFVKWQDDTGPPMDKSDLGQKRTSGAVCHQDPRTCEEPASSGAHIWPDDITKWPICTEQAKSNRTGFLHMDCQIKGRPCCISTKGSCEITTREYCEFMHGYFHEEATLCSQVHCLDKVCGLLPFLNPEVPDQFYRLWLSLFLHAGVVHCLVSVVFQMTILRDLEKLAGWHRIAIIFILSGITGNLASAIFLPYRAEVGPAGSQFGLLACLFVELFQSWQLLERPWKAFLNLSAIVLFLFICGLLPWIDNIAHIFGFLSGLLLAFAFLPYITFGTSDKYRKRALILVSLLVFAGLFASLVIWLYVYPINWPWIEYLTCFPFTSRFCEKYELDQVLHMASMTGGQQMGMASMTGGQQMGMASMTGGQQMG


Experiments:
[1] = molecular target: T1, human iRhom2 (inactive rhomboid protein …); assay: cell-based or functional assay
[2] = molecular target: T2, dog iRhom2 full length wild type, …; assay: FACS, MEF-DKO-Dog-iR2-FL-WT-T7 cells
Procedure: In brief, immortalized MEF-DKO-EV control cells, MEF-DKO-rhesus-iR2-FL-WT-T7 cells, MEF-DKO-cyno-iR2-FL-WT-T7 cells, MEF-DKO-dog-iR2-FL-WT-T7 cells and MEF-DKO-rabbit-iR2-FL-WT-T7 cells, as well as their respective iRhom1 counterparts, were harvested with 10 mM EDTA in PBS, washed and resuspended in FACS buffer (PBS, 3% FBS, 0.05% sodium azide), and seeded in Nunc U-bottom 96-well plates (Thermo Fisher Scientific, USA) at approximately 3×10⁵ cells per well. To pellet cells and remove supernatants, the plates were centrifuged at 1,500 rpm and 4° C. for 3 minutes. For primary staining, cells were resuspended in 100 μl per well of either FACS buffer alone (controls), mouse monoclonal anti-T7 IgG (Merck Millipore, USA) at 3 μg/ml FACS buffer or the antibodies of the present disclosure also at 3 μg/ml FACS buffer and incubated on ice for 1 hour. Afterwards, plates were centrifuged at 1,500 rpm and 4° C. for 3 minutes and washed twice with 200 μl per well of FACS buffer. For secondary staining, cells were spun down and resuspended in 100 μl per well of PE-conjugated goat anti-mouse IgG F(ab′)2 detection fragment (Dianova, Germany) diluted 1:100 in FACS buffer. Protected from light, the cell suspensions were incubated on ice for 1 hour. Plates were then centrifuged at 1,500 rpm and 4° C. for 3 minutes and washed three times with 200 μl per well of FACS buffer. Finally, cells were resuspended in 150 μl per well of FACS buffer and analyzed using a BD Accuri™ C6 Plus flow cytometer (Becton Dickinson, Germany).

| Binder | inhibition of LPS-induced release of TNFα from THP-1 cells, 10 µg/ml, antibody purified from hybridoma [1] [% inhibition] | inhibition of LPS-induced release of TNFα from THP-1 cells, recombinant antibody [1] [% inhibition] | inhibition of PMA-induced release of IL-6R from THP-1 cells, 1 µg/ml [1] [% inhibition] | inhibition of PMA-induced release of IL-6R from U-937 cells, 1 µg/ml [1] [% inhibition] | inhibition of PMA-induced release of TNFα from U-937 cells, 1 µg/ml [1] [% inhibition] | binding result [2] | also measured |
| --- | --- | --- | --- | --- | --- | --- | --- |
| antibody 16 (antibody, V domains shown, Mouse IgG, kappa light chain; also called clone #16; m16) VH: QVTLKESGPGILQPSQTLSLTCSFSGFSLSTFALGVGWIRQPSGRGLEWLAHIWWDDDKYYNPALKSRLTISKDTSKNHVFLKIANVDTADTATYYCARITTYYYGMDYWGQGTSVTVSS VL: DIVLSQSPATLSVTPGDSVSLFCRASQSIGNHLHWYQQESHASPRLLIKYASQSISGIPSRFSGSGSGTDFTLSINSVETEDFGMYFCQQSYNWPLTFGAGTKLELK | 65.4 | 70.7 | 72.5 | 77.7 | 91.6 | – | inhibition of LPS-induced release of TNFα from PBMCs of healthy donors, 1 µg/ml [1]: 81.3 % inhibition; inhibition of LPS-induced release of TNFα from human macrophages of healthy donors [1]: 85.8 % inhibition; inhibition of PMA-induced release of HB-EGF from PBMCs of healthy donors, 1 µg/ml [1]: 71.6 % inhibition; inhibition of PMA-induced release of HB-EGF from THP-1 cells, 3 µg/ml [1]: 71.9 % inhibition; inhibition of PMA-induced release of HB-EGF from U-937 cells [1]: 99.6 % inhibition; inhibition of PMA-induced release of IL-6R from PBMCs of healthy donors, 1 µg/ml [1]: 84.3 % inhibition; inhibition of PMA-induced release of IL-6R from U-937 cells, 3 µg/ml [1]: 77.4 % inhibition; inhibition of PMA-induced release of TGFα from PC3 cells, 1 µg/ml [1]: 13.9 % inhibition; inhibition of PMA-induced release of TNFα from U-937 cells, 3 µg/ml [1]: 91.9 % inhibition |
| antibody 3 (antibody, V domains shown, Mouse IgG, kappa light chain; also called clone #3; purified antibody 3) VH: QVTLKESGPGILQPSQTLSLTCSFSGFSLTTFAMGIGWVRQPSGKGLEWLAHIWWDGEKYNNPVLKSRLTISKDTSKNQVFLRIANVDTPDTATYYCARISSIYYIIDNWGQGTSVTVSS VL: DIVLTQSPATLSVTPGHSVSLSCRASQSISNNLHWYQKKSHESPRLLIKYVSQSISGIPSRFSGSGSGTDFTLSINSVETEDFGMYFCQQSYNWPLTFGAGTKLELK | 71.2 | 59.9 | 46.7 | 61.8 | 65.9 | – | – |
| antibody 48 (antibody, V domains shown, Mouse IgG, kappa light chain; also called clone #48; purified antibody 48) VH: QVQLQQSGTELVRPGTSVKVSCKASGYAFTNYLIEWVKQRPGQGLEWIGVINPGSGFTKYNEKFKGKATLTADKSSSTVYMHLSSLTSEDSAVYFCARGLYRAMDYWGQGTSVTVSS VL: DIQMTQSPASQSASLGESVTITCLASQTIATWLAWYQQKPGKSPQLLIYGATTLADGVPSRFSGGGSGTKFSFKISSLQAEDFVSYYCQQLYSTPYTFGGGTKLEIK | – | – | – | – | – | binds | – |
| antibody 47 (antibody, V domains shown, Mouse IgG, kappa light chain; also called clone #47) VH: QVQLQQSGAELVRPGTSVKVSCKASGYAFTNYLIEWVKQRPGQGLEWIGVINPGSGFTNYNEKFKGKAILNADKSSSTAYMQLISLTSEDSAVYFCARDLKRAMDHWGQGTSVTVSS VL: DIQMTQSPASQSASLGESVTITCLASQTIGTWLAWYQQKPGKSPQLLIHAATSLADGVPSRFSGSGSGTKFSFKISSLQAEDFVSYYCQQIYSSPYTFGGGTKLEIK | – | – | – | – | – | binds | – |
| antibody 50 (antibody, V domains shown, Mouse IgG, kappa light chain; also called clone #50; purified antibody 50) VH: QVQLQQSGAELVRPGASVKVSCKASGYAFSNYLIEWVKQRPGQGLEWIGVINPGSGFTKYNEKFKGKATLTADKSSSTAYMQLSSLTSEDSAVYFCARGLYRAMDYWGQGTSVTVSS VL: DIQMTQSPASQSASLGESVTITCLASQTIGTWLAWYQQKPGKSPQLLIYAAASLADGVPSRFSGGGSGTKFSFKISSLQAEDFVNYYCQQIYSTPYTFGGGTKLEIK | – | – | – | – | – | binds | – |
| antibody 51 (antibody, V domains shown, Mouse IgG, kappa light chain; also called clone #51) VH: QVQLQQSGAELVKPGASVKISCKASGYTFSNYWMNWVKQRPGKGLEWIGQIYPGDGDTKYNGKFKNKATLTADKSSSTAYMQFSSLTSEDSAVYFCARGDLVFVYWGLGTLVTVSA VL: DVQITQSPSYLAVSPGETITINCRASKNIRKYLAWYQEKPGKTNKLLIYSGSTSQSGVPSRFSGSGSGTDFTLTISSLEPEDFAMYYCQQHNEYPYTFGGGTKLEIK | – | – | – | – | – | binds | – |
| antibody 43 (antibody, V domains shown, Mouse IgG, kappa light chain; also called clone #43) VH: QVALKESGPGILQPSQTLSLTCSFSGFSLSTFGMGVGWIRQSSGKGLEWLANIWWDDDKYYNPALKSRLTISKDASKNQAFLKIANVDTADTATYYCARIGNYGSNYWYFDVWGTGTTVTVSS VL: QIVLTQSPAIMSASPGERVTMTCSANSRISYMYWYQQKPGSSPRLLIYDTSNLASGVPVRFSGSGSGTSYSLTISRMEAEDAATYNCQQWSSYPLTFGAGTKLELK | 74.8 | 78.5 | 72.9 | 76.1 | 78.3 | binds | inhibition of PMA-induced release of TGFα from PC3 cells, 1 µg/ml [1]: 12.4 % inhibition |
| antibody 5 (antibody, V domains shown, Mouse IgG, kappa light chain; also called clone #5; purified antibody 5) VH: QVTLKESGPGILQPSQTLSLTCSFSGFSLSTFGMGVGWIRQPSGKGLEWLAHIWWDDEKYYNSALKSRLTISKATSKNQAFLKIANVDTADTATYYCARISNYGSNYWYFNVWGTGTTVTVSS VL: QVVLTQSPALMSASPGEKVTMTCSAGSSVSCMYWYQQKPGSSPRVLIYDTSNLASGVPARFTGSGSGTSYSLTISRMEAEDAASYYCQQWNSYPLTFGAGTKLELK | 69 | 70.5 | 64.1 | 67 | 63.6 | – | – |
